In article PMC7248283:
“And” between values parts separate entries of the source, which are not always exact repeats. Identical values can stand only once.

Key:
[1] = target: GST-FliS (Helicobacter pylori (strain 26695)); experiment: pull-down; competitive: the same experiment as a5, for purified HP1076 added at molar ratios to GST-FliS of 0, 0.5:1, 5:1 and 50:1 in the presence of H. pylori lysate; read-out is the flagellin band
[2] = target: FliS (flagellar export chaperone FliS of Helicobacter pylori), GST tag removed (Helicobacter pylori (strain 26695)); experiment: MST; labelled FliS or FliS-FlaBc (40 nM) mixed with HP1076 (6.2 μM to 0.189 nM, or 3.83 mM to 117 μM); 20 mM Tris pH 7.5, 150 mM NaCl, 2 mM DTT; 21.5°C
[3] = target: FliS-FlaBc complex (Helicobacter pylori (strain 26695) | Helicobacter pylori) (UniProt Q07911); experiment: as above

B1: His-HP1076 (natural protein)
chain: MDILKTLQKHLGDVETSDFTTNAIEKSQQIAKFSRDMKNINESVGALQVLQIACKKLFNKSMGLEDKDALQASIIKQELREIVENCQFLASPLFDTQLNIAINDEIFSMIVVNPLDLLENVGEFQAYLEEKLNEIKELLGYLSESLSNPKAFMPSFSNQSLKDLLSDNLRA
**Q.** For B1, which binding of flagellin (FlaA/FlaB band) to GST-FliS left when saturated by HP1076 (fraction of the binding without HP1076) [1] is on record?
**A.** The binding of flagellin (FlaA/FlaB band) to GST-FliS left when saturated by HP1076 (fraction of the binding without HP1076) was 0.2 and 0.25.

**Q.** And the Kd [2]?
**A.** The Kd was 15 nM.

**Q.** What about the Kd [3] of the same binder?
**A.** The Kd was 1.6 mM.
